Test results reported in US20220227882A1 (TRUSTEES OF TUFTS COLLEGE, published 2022).

T1: Recombinant human ADAM15 (Sino Biological, 10517-H08H) (human, UniProt Q13444 18-696)
T1 sequence (looked up): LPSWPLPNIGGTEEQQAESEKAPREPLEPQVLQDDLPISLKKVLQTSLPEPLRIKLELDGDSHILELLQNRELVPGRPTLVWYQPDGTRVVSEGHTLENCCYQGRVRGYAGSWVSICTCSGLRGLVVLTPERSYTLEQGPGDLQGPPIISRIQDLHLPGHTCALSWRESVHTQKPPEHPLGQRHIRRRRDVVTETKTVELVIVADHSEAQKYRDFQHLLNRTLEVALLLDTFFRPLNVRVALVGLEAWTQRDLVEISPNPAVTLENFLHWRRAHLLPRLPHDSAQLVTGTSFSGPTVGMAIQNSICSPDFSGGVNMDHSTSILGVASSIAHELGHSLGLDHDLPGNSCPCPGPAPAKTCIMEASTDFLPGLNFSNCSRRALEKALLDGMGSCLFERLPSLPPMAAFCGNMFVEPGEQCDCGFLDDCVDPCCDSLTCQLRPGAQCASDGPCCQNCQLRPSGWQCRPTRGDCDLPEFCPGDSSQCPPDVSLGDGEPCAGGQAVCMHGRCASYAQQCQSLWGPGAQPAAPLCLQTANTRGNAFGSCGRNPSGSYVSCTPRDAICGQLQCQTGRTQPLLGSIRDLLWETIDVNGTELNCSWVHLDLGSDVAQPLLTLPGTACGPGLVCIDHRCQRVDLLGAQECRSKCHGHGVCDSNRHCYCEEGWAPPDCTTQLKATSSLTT

T2: E444A (Homo sapiens, UniProt P78325)
T2 construct: expressed on HEK293 cells; also called human ADAM8 point mutant E444A
T2 sequence (ADAM8, looked up): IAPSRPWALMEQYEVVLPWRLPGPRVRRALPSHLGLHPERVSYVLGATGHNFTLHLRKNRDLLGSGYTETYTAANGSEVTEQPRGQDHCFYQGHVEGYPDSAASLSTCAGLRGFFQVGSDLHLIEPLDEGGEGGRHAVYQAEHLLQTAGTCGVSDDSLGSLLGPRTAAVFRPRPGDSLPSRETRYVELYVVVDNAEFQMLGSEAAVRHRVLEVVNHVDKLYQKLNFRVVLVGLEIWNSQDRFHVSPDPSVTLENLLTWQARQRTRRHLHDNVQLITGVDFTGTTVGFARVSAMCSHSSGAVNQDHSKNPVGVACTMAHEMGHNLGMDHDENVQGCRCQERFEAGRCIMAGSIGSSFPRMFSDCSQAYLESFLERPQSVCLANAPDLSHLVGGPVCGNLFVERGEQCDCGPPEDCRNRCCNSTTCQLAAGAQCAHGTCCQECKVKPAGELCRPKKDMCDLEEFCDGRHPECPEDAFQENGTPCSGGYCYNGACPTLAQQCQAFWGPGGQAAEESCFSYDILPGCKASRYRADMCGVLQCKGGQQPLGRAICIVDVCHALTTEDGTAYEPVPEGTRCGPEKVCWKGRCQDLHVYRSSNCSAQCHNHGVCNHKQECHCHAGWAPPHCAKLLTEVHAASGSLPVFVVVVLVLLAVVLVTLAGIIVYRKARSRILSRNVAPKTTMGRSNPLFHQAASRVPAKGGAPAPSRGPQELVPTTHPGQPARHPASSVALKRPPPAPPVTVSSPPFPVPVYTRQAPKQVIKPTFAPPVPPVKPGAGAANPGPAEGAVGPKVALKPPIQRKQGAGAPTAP


Tests used:
[1] = target: T1, Recombinant human ADAM15 (Sino …); experiment: ELISA, recombinant ADAM15
Protocol: ELISA assays were also used to test hybridoma clones, subclones and purified ADP antibodies for specificity of ADAM8 binding, i.e., binding to rHuADAM8 (Acro Biosystems, AD8-H5223) was compared to binding to closely related recombinant human ADAM proteins: […], ADAM12 (Acro Biosystems, AD2-H5228) and ADAM15 (Sino Biological, 10517-H08H). For analysis of clones and subclones, 50 μl of cell supernatants were used. A test bleed sample (1:1000) was used as a positive control. Hybridoma culture medium or a pre-bleed serum sample (1:1000) was used as a negative control. Purified mouse ADPs were assessed at 1 μg/ml vs normal mouse IgG and with a test bleed sample as a positive control. ADP binding was detected with a goat anti-mouse IgG (Fc specific)-peroxidase antibody (1:5000, Sigma-Aldrich, A0168).

E444A = target: T2, E444A; experiment: high-throughput flow cytometry, HEK293 cells with mutant ADAM8, high stringency; range in parentheses; closed box
Protocol: A variety of experimental parameters were optimized for high-throughput flow cytometry including blocking buffer, and primary and secondary antibody concentrations, to identify the optimal conditions for screening. Through these studies ADP2 and ADP13 were determined to be high affinity binding antibodies.
Thus, for these studies antigen-binding fragments (Fabs) of ADP2 and ADP13, which bind with lower affinity than the full antibody, were generated. In addition, higher binding stringency conditions were tested, such as increased pH, salinity, and temperature, and/or increased washing, to weaken binding sufficiently to allow identification of critical binding residues in flow cytometry. The final experimental flow cytometry conditions were: primary antibody incubation with ADP2 Fab (0.50 μg/ml), ADP13 Fab (5.00 μg/ml) and Control Ab (0.16 μg/ml) for 60 minutes in flow cytometry buffer containing 10% goat serum in PBS (Ca²⁺ and Mg²⁺ free). […] Samples were washed three times after primary antibody incubation and twice after secondary antibody incubation with PBS (Ca²⁺ and Mg′ free). Next, HEK293 cells expressing WT or mutated ADAM8 proteins or EV DNA were incubated with ADP2 or ADP13 Fabs or Control Ab at their optimal concentrations. Fab binding was detected using Alexa Fluor 488-conjugated secondary antibodies and mean cellular fluorescence determined using the Intellicyt iQue flow cytometry platform. […] This counter-screen strategy facilitates the exclusion of mutants that are locally misfolded or that have an expression defect. Binding of each test Fab to each mutant clone in the alanine scanning library was determined, in duplicate, by high-throughput flow cytometry.

Binder	binding result [1]	Binding Reactivity (% WT) (E444A)
ADP2 (antibody, V domains shown, also called mADP2; mouse ADP2) VH: EVKLVESGGGLVQPGGSLSLSCAASGFSFPDYYMSWVRQPPGKALEWLGFIRDSANGYTTEYIASVKGRFTFSRDNSQSILYLQMNALRAEDSATYYCARYSRYYGMDYWGQGTSVTVSS VL: SIVMTQTPKILLVSAGDRVTITCKASQTVNYDVAWYQQKPGQSPKPVIYFASNRYTGVPDRFTGSGFGTDFTFTISTVQAEDLAVYFCQQDYSAPWTFGGGTKLEIK	no binding (tested: 1 µg/ml)	
ADP2 Fab (Fab, V domains shown) VH: EVKLVESGGGLVQPGGSLSLSCAASGFSFPDYYMSWVRQPPGKALEWLGFIRDSANGYTTEYIASVKGRFTFSRDNSQSILYLQMNALRAEDSATYYCARYSRYYGMDYWGQGTSVTVSS VL: SIVMTQTPKILLVSAGDRVTITCKASQTVNYDVAWYQQKPGQSPKPVIYFASNRYTGVPDRFTGSGFGTDFTFTISTVQAEDLAVYFCQQDYSAPWTFGGGTKLEIK		17.6
